Source: article doi:10.1101/2024.10.22.619416 (bioRxiv, 2024)
Positions count from the first letter of the chain named.

B1: humanized nanobody hNb1.1 (VHH)
VHH: EVQLVESGGGLVQPGGSLRLSCAASGSISTLNVMGWFRQAPGKGREWVAAITLDGSPYYADSVKGRFTISRDNAKNTLYLQMNSLRPEDTAVYYCKLENGGFFYYWGQGTQVTVSS
B2: humanized nanobody hNb1.2 (VHH)
VHH: B1 VHH with G35S, F37V, R45L, A49S, A50S, A74S, P87V, Q111L
B3: humanized nanobody hNb1.3 (VHH)
VHH: B1 VHH with G35S, F37V, R45L, A49S, A50S, Y58N, A74S, P87V, Q111L
B4: humanized nanobody hNb1.5 (VHH)
VHH: B1 VHH with F37Y, G44Q, W47L, A50Q, Y58E, A74S, R86K
B5: humanized nanobody hNb1.4 (VHH)
VHH: B1 VHH with F37Y, G44Q, W47L, A50Q, Y58E, P87A
B6: alpaca nanobody 3-2A2-4 (VHH)
VHH: QVQLQESGGGLVQPGESLRLSCAASGSISTLNVMGWYRQAPGKQRELVAQITLDGSPEYADSVKGRFTITKDGAQSTLYLQMNNLKPEDTAVYFCKLENGGFFYYWGQGTQVTVST
B7: humanized antibody hAb1.1 (antibody, V domains shown)
VH: QVQLQESGPGLVKPSETLSLTCSVSGFSLINYAISWIRQPPGKGLEWIGVIWTGGGTNYNSALKSRLTISRDTSKNQVFLKMNSVTAADTAVYYCARKDYYGRYYGMDYWGQGTLVTVSS
VL: QAVVTQEPSLTVSPGGTVTLTCRSSTGAVTTSNYANWLQQKPGQAPRGLIGGTNNRAPGVPPRFSGSILGDKAALTLSGAQSEDEADYYCALWYNNHWVFGGGTKLTVL
B8: humanized antibody hAb1.5 (antibody, V domains shown)
VH: B7 VH with S23T, P40A, R71V, N76S, V78F, F79S, M82L, N83S
VL: B7 VL with L38F, K41R, A45P, P62A, D71G, S82P
B9: humanized antibody hAb1.2 (antibody, V domains shown)
VH: B7 VH with S23T, P40A, N76S, M82L
VL: B7 VL with L38F, G59W, P62D, I68L, D71G, S82P
B10: humanized antibody hAb1.4 (antibody, V domains shown)
VH: B7 VH with S23T, I37V, P40A, R71V, N76S, F79S, K81R, M82L, N83S
VL: B7 VL with L38F, P62A, D71G, S82P

molecular target: SARS-CoV-2 (2019-nCoV) Spike RBD protein (SARS-CoV-2 (2019-nCoV), ancestral …, UniProt P0DTC2); assay: BLI

Row | Binder | Kd
1 | B1 | 2.52 nM
2 | B2 | 45.7 nM
3 | B3 | 58.2 nM
4 | B4 | 7.4 nM
5 | B5 | 5.83 nM
6 | B6 | 5.47 nM
7 | B7 | 0.27 nM
8 | B8 | 6.37 nM
9 | B9 | 0.15 nM
10 | B10 | 1.03 nM
